For 18 molecules, EC50, binding result and Kd results are on record in patent publication US20260356955 (published 2026).

One assay deals with human KLRB1 on CHO-K1 (human). The assay can be described thus: FACS.
The target in assay [1] is T1, cynomolgus KLRB1 on CHO-K1 (cynomolgus).
T1 chain: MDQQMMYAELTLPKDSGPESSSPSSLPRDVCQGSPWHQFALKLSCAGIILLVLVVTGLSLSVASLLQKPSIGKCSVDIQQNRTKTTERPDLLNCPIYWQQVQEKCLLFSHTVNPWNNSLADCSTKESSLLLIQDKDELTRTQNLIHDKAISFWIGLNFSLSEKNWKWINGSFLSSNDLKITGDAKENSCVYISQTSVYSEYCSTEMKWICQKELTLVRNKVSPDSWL
The assay can be described thus: FACS.

Assay [2] deals with human KLRB1 ECD (human). The experiment in a line: ELISA.
In assay [3] the target is human KLRB1 ECD (human). The assay can be described thus: SPR.

human KLRB1 ECD (human), sequence (chain, as listed by the source): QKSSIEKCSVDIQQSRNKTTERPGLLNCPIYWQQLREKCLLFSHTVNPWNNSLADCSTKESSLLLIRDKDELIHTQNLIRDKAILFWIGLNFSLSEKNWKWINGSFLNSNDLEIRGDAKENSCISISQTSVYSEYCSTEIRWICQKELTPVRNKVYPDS
human KLRB1 on CHO-K1 (human), sequence (chain, as listed by the source): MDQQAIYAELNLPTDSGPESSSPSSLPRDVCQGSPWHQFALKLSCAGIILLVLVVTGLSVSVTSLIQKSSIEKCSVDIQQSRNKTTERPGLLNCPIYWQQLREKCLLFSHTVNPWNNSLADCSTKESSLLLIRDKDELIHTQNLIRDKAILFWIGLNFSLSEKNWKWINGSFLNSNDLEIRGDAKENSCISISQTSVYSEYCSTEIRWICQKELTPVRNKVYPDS

B1: Hu50A8F2-15 (antibody, V domains shown)
VH: QVQLVQSGAEVKKPGASVKVSCKASGYTFIDYYINWVRQAPGQGLEWIGWIFPGSGHTKYNENFKGKVTLTVDTSTSTVYMELSSLRSEDTAVYFCARGDRSALGYFDYWGQGTTVTVSS
VL: DIQLTQSPSSLSASVGDRVTITCTASSSVSSTYLHWYQQKPGKSPKLLIYSTSNLASGVPSRFSGSGSGTDYTLTISSLQPEDFATYYCHQYHRSPLTFGQGTKLEIK
Consider B1, for which the figures for the EC50 with human KLRB1 on CHO-K1 and with human KLRB1 ECD [2] were 5.39 nM and 0.0148 nM, respectively. The binding result in assay [1] is “no binding”.

B2: Hu50A8F2-12 (antibody, V domains shown)
VH: QVQLVQSGAEVKKPGASVKVSCKASGYTFIDYYINWVRQAPGQGLEWMGWIFPGSGHTKYNENFKGKVTLTVDTSTSTVYMELSSLRSEDTAVYYCARGDRSALGYFDYWGQGTTVTVSS
VL: DIQLTQSPSSLSASVGDRVTITCTASSSVSSTYLHWYQQKPGKSPKLLIYSTSNLASGVPSRFSGSGSGTDYTLTISSLQPEDAATYYCHQYHRSPLTFGQGTKLEIK
For B2, the EC50 with human KLRB1 on CHO-K1 is 5.77 nM; with human KLRB1 ECD [2], 0.014 nM. The binding result in assay [1] was “no binding”.

B3: Hu50A8F2-02 (antibody, V domains shown)
VH: QVQLVQSGAEVKKPGASVKVSCKASGYTFIDYYINWVRQAPGQGLEWMGWIFPGSGHTKYNENFKGRVTMTRDTSTSTVYMELSSLRSEDTAVYYCARGDRSALGYFDYWGQGTTVTVSS
VL: DIQMTQSPSSLSASVGDRVTITCTASSSVSSTYLHWYQQKPGKAPKLLIYSTSNLASGVPSRFSGSGSGTDYTLTISSLQPEDFATYYCHQYHRSPLTFGQGTKLEIK
As to B3, the EC50 with human KLRB1 on CHO-K1 amounted to 5.81 nM; with human KLRB1 ECD [2] it was 0.0167 nM. In assay [1], the binding result was “no binding”.

B4: Hu50A8F2-16 (antibody, V domains shown)
VH: QVQLVQSGAEVKKPGASVKVSCKASGYTFIDYYINWVRQAPGQGLEWIGWIFPGSGHTKYNENFKGKVTLTVDTSTSTVYMELSSLRSEDTAVYFCARGDRSALGYFDYWGQGTTVTVSS
VL: DIQLTQSPSSLSASVGDRVTITCTASSSVSSTYLHWYQQKPGKSPKLLIYSTSNLASGVPSRFSGSGSGTDYTLTISSLQPEDAATYYCHQYHRSPLTFGQGTKLEIK
With B4, the figures for the EC50 in the assay with human KLRB1 on CHO-K1 and in the assay with human KLRB1 ECD [2] were 5.27 nM and 0.0103 nM, respectively. Also, the binding result in assay [1] is “no binding”.

B5: Hu50A8F2-05 (antibody, V domains shown)
VH: QVQLVQSGAEVKKPGASVKVSCKASGYTFIDYYINWVRQAPGQGLEWMGWIFPGSGHTKYNENFKGKVTMTVDTSTSTVYMELSSLRSEDTAVYYCARGDRSALGYFDYWGQGTTVTVSS
VL: DIQMTQSPSSLSASVGDRVTITCTASSSVSSTYLHWYQQKPGKAPKLLIYSTSNLASGVPSRFSGSGSGTDFTLTISSLQPEDFATYYCHQYHRSPLTFGQGTKLEIK
As for B5, the EC50 with human KLRB1 on CHO-K1 was determined as 5.51 nM; with human KLRB1 ECD [2] it was 0.0183 nM. Further, the binding result in assay [1] is on record as “no binding”.

B6: Hu50A8F2-07 (antibody, V domains shown)
VH: QVQLVQSGAEVKKPGASVKVSCKASGYTFIDYYINWVRQAPGQGLEWMGWIFPGSGHTKYNENFKGKVTMTVDTSTSTVYMELSSLRSEDTAVYYCARGDRSALGYFDYWGQGTTVTVSS
VL: DIQLTQSPSSLSASVGDRVTITCTASSSVSSTYLHWYQQKPGKSPKLLIYSTSNLASGVPSRFSGSGSGTDYTLTISSLQPEDFATYYCHQYHRSPLTFGQGTKLEIK
B6: the EC50 with human KLRB1 on CHO-K1 worked out at 5.72 nM; in the assay with human KLRB1 ECD [2], 0.0174 nM. In assay [1], the binding result was “no binding”.

B7: Hu50A8F2-09 (antibody, V domains shown)
VH: QVQLVQSGAEVKKPGASVKVSCKASGYTFIDYYINWVRQAPGQGLEWMGWIFPGSGHTKYNENFKGKVTLTVDTSTSTVYMELSSLRSEDTAVYYCARGDRSALGYFDYWGQGTTVTVSS
VL: DIQMTQSPSSLSASVGDRVTITCTASSSVSSTYLHWYQQKPGKAPKLLIYSTSNLASGVPSRFSGSGSGTDFTLTISSLQPEDFATYYCHQYHRSPLTFGQGTKLEIK
Turning to B7, the EC50 with human KLRB1 on CHO-K1 is 5.4 nM; with human KLRB1 ECD [2] it was 0.0189 nM. In addition, in assay [1], the binding result is “no binding”.

B8: Hu50A8F2-08 (antibody, V domains shown)
VH: QVQLVQSGAEVKKPGASVKVSCKASGYTFIDYYINWVRQAPGQGLEWMGWIFPGSGHTKYNENFKGKVTMTVDTSTSTVYMELSSLRSEDTAVYYCARGDRSALGYFDYWGQGTTVTVSS
VL: DIQLTQSPSSLSASVGDRVTITCTASSSVSSTYLHWYQQKPGKSPKLLIYSTSNLASGVPSRFSGSGSGTDYTLTISSLQPEDAATYYCHQYHRSPLTFGQGTKLEIK
As for B8, the EC50 with human KLRB1 on CHO-K1 amounted to 5.44 nM; with human KLRB1 ECD [2], 0.0111 nM. The binding result in assay [1] is given as “no binding”.

B9: Hu50A8F2-11 (antibody, V domains shown)
VH: QVQLVQSGAEVKKPGASVKVSCKASGYTFIDYYINWVRQAPGQGLEWMGWIFPGSGHTKYNENFKGKVTLTVDTSTSTVYMELSSLRSEDTAVYYCARGDRSALGYFDYWGQGTTVTVSS
VL: DIQLTQSPSSLSASVGDRVTITCTASSSVSSTYLHWYQQKPGKSPKLLIYSTSNLASGVPSRFSGSGSGTDYTLTISSLQPEDFATYYCHQYHRSPLTFGQGTKLEIK
B9: the EC50 with human KLRB1 on CHO-K1 worked out at 5.43 nM; with human KLRB1 ECD [2], 0.0144 nM. Besides, the binding result in assay [1] is “no binding”.

B10: Hu50A8F2-10 (antibody, V domains shown)
VH: QVQLVQSGAEVKKPGASVKVSCKASGYTFIDYYINWVRQAPGQGLEWMGWIFPGSGHTKYNENFKGKVTLTVDTSTSTVYMELSSLRSEDTAVYYCARGDRSALGYFDYWGQGTTVTVSS
VL: DIQMTQSPSSLSASVGDRVTITCTASSSVSSTYLHWYQQKPGKAPKLLIYSTSNLASGVPSRFSGSGSGTDYTLTISSLQPEDFATYYCHQYHRSPLTFGQGTKLEIK
In the case of B10, the EC50 with human KLRB1 on CHO-K1 came out at 5.67 nM; in the assay with human KLRB1 ECD [2], 0.0187 nM. In addition, the binding result in assay [1] was “no binding”.

B11: Hu50A8F2-13 (antibody, V domains shown)
VH: QVQLVQSGAEVKKPGASVKVSCKASGYTFIDYYINWVRQAPGQGLEWIGWIFPGSGHTKYNENFKGKVTLTVDTSTSTVYMELSSLRSEDTAVYFCARGDRSALGYFDYWGQGTTVTVSS
VL: DIQMTQSPSSLSASVGDRVTITCTASSSVSSTYLHWYQQKPGKAPKLLIYSTSNLASGVPSRFSGSGSGTDFTLTISSLQPEDFATYYCHQYHRSPLTFGQGTKLEIK
Consider B11, for which the EC50 is 5.06 nM with human KLRB1 on CHO-K1 and 0.0104 nM with human KLRB1 ECD [2]. Also, the binding result in assay [1] is “no binding”.

B12: Hu50A8F2-14 (antibody, V domains shown)
VH: QVQLVQSGAEVKKPGASVKVSCKASGYTFIDYYINWVRQAPGQGLEWIGWIFPGSGHTKYNENFKGKVTLTVDTSTSTVYMELSSLRSEDTAVYFCARGDRSALGYFDYWGQGTTVTVSS
VL: DIQMTQSPSSLSASVGDRVTITCTASSSVSSTYLHWYQQKPGKAPKLLIYSTSNLASGVPSRFSGSGSGTDYTLTISSLQPEDFATYYCHQYHRSPLTFGQGTKLEIK
B12: the EC50 turned out to be 5.12 nM with human KLRB1 on CHO-K1 and 0.0121 nM with human KLRB1 ECD [2]. Moreover, the binding result in assay [1] was “no binding”.

B13: 52G9B12B5 chimeric (antibody, V domains shown)
VH: QVQLQQSGAELMQPGTSVKIPCKATGYTFSSFWMEWVKQRPGHGLEWIGEIFPGSGSTNYNEKFKGKATFTADTSSNTAYMQLSSLTSEDSAVYYCATLITTGLTYWGQGTLVTVSA
VL: NIVMTQSHKFMSTSVGDRVSITCKASQDVNTAVAWYQQIPGRSPKLLIYWASTRHTGVPDRFTGSGSGTDYTLTISSVQAEDLAFYYCQQHYRIPFTFGAGTKLELK
Consider B13, for which binding with human KLRB1 ECD [3] was put at a Kd of 4.4 nM.

B14: 9C10G11 (antibody, V domains shown)
VH: QVQLKESGPGLVAPSQSLSITCTVSGFSLTGYGVNWVRQPPGKGLEWLGMIWGDGSTDYNSALKSRLSISKDNSKSQVFLKMNSLQTDDTARYYCARTYNNYHYWYFDVWGAGTTVTVSS
VL: DIQMTQSPASLSASVGETVTITCRASGNIHNYLAWYQQKQGKSPQLLVYNAKTLADGVPSRFSGSGSGTQYSLKINSLQPEDFGSYYCQHFWSTPYTFGGGTKLEIK
As for B14, in the assay with human KLRB1 ECD [3], the Kd was 14.8 nM.

B15: 39C5D6 (antibody, V domains shown)
VH: QVQLKESGPGLVAPSQSLSITCTVSGFSLTDYGVNWVRQTPGKGLEWLGMIWGDGSTDYNLPLKSRLSITKDNSKSQVFLKMNSLQTDDTARYYCARTYANYHYWYFDVWGAGTTVTVSS
VL: DIQMTQSPASLSASVGETVTITCRASGNIHNYLAWYQQKQGKSPQLLVYNAKTLEDGVPSRFSGSGSGTQYSLKINSLQPDDFGNYFCQHFWSTPYTFGGGTKLEIK
In the case of B15, the affinity with human KLRB1 ECD [3], expressed as Kd, was 1.21 nM.

B16: 37G6A7 (antibody, V domains shown)
VH: QVQLKESGPGLVAPSQSLSITCTVSGFSLTDYGVNWVRQPPGKGLEWLGMIWGDGSTDYNSALKSRLTISKDNSKSQVFLKMNSLQTDDTARYYCARTYGTYHYWYFDVWGAGTTVTVSS
VL: DIQMTQSPASLSASVGETVTITCRASGNIHNYLAWYQQKQGKSPQLLVYIAKTLADGVPSRFSGSGSGTQYSLKINSLQPEDFGTYYCQHFWSTPYTFGGGTKLEIK
Take B16: in the assay with human KLRB1 ECD [3], the Kd turned out to be 23.3 nM.

B17: 5B1B11 chimeric (antibody, V domains shown)
VH: QVQLQQPGAELVKPGASVKLSCKASGYTFTNYWMHWVKQRPGQGLEWIGEINPSNGRTNFNEKFKSKATLTVDKSSSTAYMQLSSLTSEDSAVYYCARSYDSYYAAVDYWGQGTSVTVSS
VL: QIVLTQSPAIMSASLGEEITLTCSASSSVSYMHWYQQKSGTSPKLLIYTTSNLPSGVPSRFSGSGSGTFYSLTISSVEAEDAADYYCHQWSTYPYTFGGGTKLEIK
B17 showed a Kd with human KLRB1 ECD [3] of 0.255 nM.

B18: 5A11D10 chimeric (antibody, V domains shown)
VH: DVQLQESGPGQVKPSQSLSLTCTVTGYSLTSDFAWNWIRQFPGNKLEWMGDIRYSGSTDYNPSLKTRSSITRDTSKNQFFLHLNSVTTEDTATYYCARGGYYGYDEGYPMDYWGQGTSVTVSS
VL: NIVLTQSPASLAVSLGQRATISCRASESVDVYGNSFMHWYQQKAGQPPKLLIYLAFNLKSGVPARFSGSGSRTDFTLTIDPVEADDAATYYCQQNNEDPFTFGSGTKLEIK
B18 gave a Kd with human KLRB1 ECD [3] of 0.0591 nM. Against the preceding molecule, the Kd is about 4.3-fold lower.
